Data on 23 molecules can be found in US20250289873A1 (published 2025).

A word on the Kd: it is the free concentration of one partner at which half of the binding sites on the other are occupied at equilibrium, for simple one-to-one binding. Lower therefore signals a tighter complex.

The target of the test is hCFHR4. The test is described as follows: SPR kinetics. A general note: In SPR one partner is held on a chip, and binding of the other changes the refractive index at the surface.

B1: ATX-P-578 (antibody, V domains shown)
VH: EVQLVESGGGLVQPGGSLRLSCAASGFTFSRYSMNWVRQAPGKGLEWVSYISSSSSTIFHADSVKGRFTISRDNAKNSLYLQMNSLRDEDTAVYYCARGNWNYYYMDVWGKGTTVTVSS
VL: DIQMTQSPSTLSASVGDRVTISCRASQSVNSWLAWYQQKPGKAPKLLIYKASNLEGGVPSSFSGSGSGTEFTLTISSLQPDDFATYYCQQYDTSWTFGQGTKVEIKR
In turn, B1 gave a Kd of 25 nM.

B2: ATX-P-607 (antibody, V domains shown)
VH: QVQLVQSGAEVKKPGASVKVSCKASGYTFTSYYMHWVRQAPGQGLEWMGIINPSGGSTSYAQKFQGRVTMTRDTSTNTVYMELSSLRSEDTAVYYCARDPEYSSAFDIWGQGTMVTVSS
VL: DIQMTQSPSSLSASVGDRGTITCRASQSIRSYLNWYQQKPGKAPKLLIYAASSLQSGVPSRFSGSGSGTDFTLTISSLQPEDFATYYCQQSYRTPVTFGPGTKVDIKR
In turn, B2 came in with an equilibrium dissociation constant (Kd) of 7.97 nM.

B3: ATX-P-571 (antibody, V domains shown)
VH: QVQLQESGPGLVKPSGTLSLTCAVSGGSISSRNWWSWVRQPPGKGLEWIGEIYHGGTTNYNPSLKSRVTISVDKSKNQFSLKLSSVTAADTAVYYCARGGLRLGELSPNAFDIWGQGTMVTVSS
VL: DIQMTQSPSSLSASVGDRVTITCRASQSISSYLNWYQQKPGKAPKVLIYAASSLQSGIPSRFSGSGSGTDFTLTISSLQPEDFATYYCQETYSVPLTFGGGTKVEIKR
B3 yielded a Kd of 27.4 nM.

B4: ATX-P-597 (antibody, V domains shown)
VH: QVQLVQSGAEVKKPGASVKVSCKASGYTFTNYYMQWVRQAPGQGLEWLGIIDPSGGSTTYAQKFQGRVTMTRDTSTSTVHMELRSLRSEDTAVYYCARDEGTDRPGWGYWGQGTLVTVSS
VL: DIQMTQSPSSLSASIGDRVTITCRASQSISSYLDWYQRKSGKAPKLLIYAASSLQSGVPSRFSGSGSGTDFTLTISSLQPEDFATYYCQQSYSTPLTFGGGTKVDIKR
As for B4, the Kd turned out to be 0.168 nM.

B5: ATX-P-601 (antibody, V domains shown)
VH: QVQLVQSGAEVKKPGASVKVSCKASGYTFTSYYMHWVRQAPGQGLEWMGIINPSGGSTNYAQKFQGRLTMTRDTSTNTVYMELSSLRSEDTAVYYCATDQSGGMDVWGKGTTVTVSS
VL: DIQMTQSPSSLSASVGDRVTITCRASQSINIYLNWYQQKPEKDPKLLIYAASSLQSGVPSRFSGSGSGTDFTLTISNLQPEDFATYYCQQSYSTPITFGQGTRLEIKR
Take B5: binding was put at a Kd of 18.2 nM.

B6: ATX-P-583 (antibody, V domains shown)
VH: QVQLVQSGAEVKKPGASVKVSCKASGYTFTTYGISWVRQAPGQGLEWMGWISAYSGNTHYAQSLQDRVTMTTDTSTSTAYMEVRSLRSDDTAVYYCAKDEGYCSSTGCLNLFDPWGQGTLVTVSS
VL: DIQMTQSPSSLSASVGDRVTITCRASQNIGSYLNWYQQKPGNAPKLLIYATSTLQSGVPSRFSGSGSGTDFTLIISSLHPEDFTVYYCQQSFIIPFTFGPGTKVDIKR
Take B6: the Kd turned out to be 0.317 nM.

B7: ATX-P-588 (antibody, V domains shown)
VH: EVQLVESGGGLVQPGRSLRLSCAASGFTFEDYAMHWVRQAPGKGLEWVSGISWNSGSIGYADSVKGRFTISRDNAKKSLYLQMNSLRAEDTALYYCTKDRDDGYNYAGVFDYWGQGTLVTVSS
VL: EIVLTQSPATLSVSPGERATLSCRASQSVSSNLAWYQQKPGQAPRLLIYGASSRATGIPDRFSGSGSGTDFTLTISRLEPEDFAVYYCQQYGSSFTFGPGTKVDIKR
Molecule B7 registered a dissociation constant (Kd) of 6.87 nM.

B8: ATX-P-572 (antibody, V domains shown)
VH: QVQLQQSGPGLVKPSQTLSLTCAISGDSVSSNSAAWNWIRQSPSRGLEWLGMTYYRSKWYSVFAVSVKSRITINTDTSKNQFSLQLNSVTPEDTAVYYCAREGGIVGATPFDYWGQGTLVTVSS
VL: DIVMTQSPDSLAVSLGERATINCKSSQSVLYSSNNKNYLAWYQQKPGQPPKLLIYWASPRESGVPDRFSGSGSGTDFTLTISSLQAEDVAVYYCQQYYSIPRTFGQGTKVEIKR
B8 returned a Kd of 1.5 nM.

B9: ATX-P-574 (antibody, V domains shown)
VH: EVQLVESGGGLVQRGGSLRLSCVASGFTFSSYAMSWVRQAPGKGLEWVSVISGSGGTTYYADSVKGRFTISRDDSKKTLYLQMNSLRAEDTAVYYCAKRGDYGDYMDVWGKGTTVTVSS
VL: DIQMTQSPSSVSASVGDRVTITCRASQGITTWLAWYQQKPGKAPKLLIFGASSLESGVPSRFSGSGSGTDFTLTISSLQPEDFATYYCQQANSFPWTFGQGTKVEIKR
For B9, the dissociation constant Kd was 5.9 nM.

B10: ATX-P-581 (antibody, V domains shown)
VH: QVQLQQSGPGLVKPSQTLSLTCAISGDSVSSNNAAWNWIRQSPSRGLEWLGRTYYRSKWYNAYAVSVKSRIIINPDTSRNQFSLQLNSVTPEDTAVYYCAREGGYIYGLDQWGQGTLVTVSS
VL: DIQMTQSPSSVSASVGDRVTITCRASQGVNNWLAWYQQKPGKAPKLLIHAASSLLSGVPSRFSGSGSGTDFTLTITSLQPEDFATYYCQQANSFPITFGQGTRLEIKR
Turning to B10, binding was put at a Kd of 9.65 nM.

B11: ATX-P-560 (antibody, V domains shown)
VH: QVQLQQSGPGLVKPSQTLSLTCAISGDSVSSNTAAWNWIRQSPSRGLEWLGRTYYRSKWYNDYAVSVKSRITINPDTSKNQFSLQLSSVTPQDTAIYYCASDNWNNGGPGFDPWGQGTLVTVSS
VL: DIQMTQSPSSVSTSVGDRVTITCRASQGISSWLAWYQQKPGKAPKLLISAASSLQSGVPSRFSGSGSGTDFTLTISTLQPEDFASYYCQQANSFPPTFGQGTRVEIKR
With B11, the Kd turned out to be 2.12 nM.

B12: ATX-P-573 (antibody, V domains shown)
VH: QVQLQQSGPGLVKPSQTLSLTCAISGDSVSSNSAAWNWIRQSPSRGLEWLGRTYYRSKLYSDYAVSVKSRITINPDTSRNQFSLQLNSVTPEDTAVYYCAREGGYTYGYDYWGQGTLVTVSS
VL: DIQMTQSPSSVSASVGDRVTITCRASQGISSWLAWYQQKPGKAPKVLIYAASSLQSGVPSRFSGSGSGTDFTLTISSLQPEDFATYYCQQANSFPPTFGPGTKVDIKR
Consider B12, for which the dissociation constant (Kd) is 23 nM.

B13: ATX-P-562 (antibody, V domains shown)
VH: QVQLQQSGPGLVKSSQTLSLTCAISGDTVSSNSAAWNWIRQSPSRGLEWLGRTFYRSRWSAAYAASVSSRITINPDTSKNQFSLQLTSVTPADTAVYYCAREGVGSSTGFDYWGQGTLVTVSS
VL: DIQMTQSPSSVSASIGDRVTITCRASKGISIWLAWYQQKPGKAPKVLISAASSLQSGAPSRFSGSGSGTDFTLTISSLQPEDFATYYCQQANSFPPTFGQGTKVEIKR
Consider B13, for which the dissociation constant (Kd) was determined as 0.487 nM.

B14: ATX-P-561 (antibody, V domains shown)
VH: QVQLQQSGPGLVKPSQTLSLTCAISGDSVSSNSAAWNWIRQSPSRGLEWLGRTYYRSKWYNGYAVSMKSRITINPDTSKNQFSLQLNSVTPEDTAMYYCAREGVGATTGFDYWGQGTLVTVSS
VL: DIQMTQSPSSLSASVGDRVTITCRASQGISSWLTWYQQKPGKAPKLLIYAASSLQGGVPSRFSGSGSGTDFTLTISSLQPEDFATYYCQQANSFPPTFGQGTKVEIKR
For B14, the affinity, expressed as Kd, was 31.9 nM.

B15: ATX-P-576 (antibody, V domains shown)
VH: EVQLVESGGGLVQPGRSLRLSCTASGFTFDDYEMHWVRQAPGKGLEWVSDISRNSGRIGYADSVKGRFTISRDNAKNSLYLQMNSLRAEDTALYYCAKDIWGSGYFDYWGQGILVTVSS
VL: DIQMTQSPSSVSASVGDRVTITCRTSQGIRNWLAWYQQKPGKAPKLLIYAASSLQTGGPSRFSGSGSGTDFTLTISSLQPEDFATYYCQQANSFPYTFGQGTKLEIKR
Take B15: the dissociation constant (Kd) was 0.9 nM.

B16: ATX-P-602 (antibody, V domains shown)
VH: not shown
VL: EIVLTQSPGTLSLSPGERATLSCRASQSVSSSYLAWYQQKPGQAPRLLIYGASSRATGIPDRFSGSGSGTQFTLTISSLQSEDFAVYYCQQYGSSPWTFGQGTKVDIKR
Molecule B16 showed a Kd of 33 nM.

B17: ATX-P-570 (antibody, V domains shown)
VH: QVQLQESGPGLVKPSETMSLTCTVSGGSFTGYYWSWIRQPPGKGLEWIGYVHYSGGTKSNPSLKSRVTISVDTSKNQFSLKLSSVTAADTAVYYCARERYEWNSYFDYWGQGTLVTVSS
VL: not shown
With B17, the equilibrium dissociation constant (Kd) turned out to be 10.5 nM.

B18: ATX-P-609 (antibody, V domains shown)
VH: QVQLQESGPGLVKPSGTLSLTCAVSGGSISSSNWWSWVRQPPGKGLEWIGEIYHSGSTNYNPSLKSRVTISVDKSKNQFSLKLRSVTAADTAVYYCARDQLSSGPTDAFDIWGQGTMVTVSS
VL: EIVMTQSPATLSVSPGERATLSCRASQSVSSNLAWYQQKPGQAPRLLIYGASTRATGIPVRFSGSGSGTQFTLTISSLQSEDFAVYYCQQYDNWRTFGQGTKLEIKR
On to B18, for which binding was characterised by a dissociation constant (Kd) of 4.98 nM.

B19: ATX-P-608 (antibody, V domains shown)
VH: QVQLQESGPGLVKPSGTLSLTCAVSGGSISSSNWWSWVRQSPGKGLEWIGEIYHTGSTNKKPSLKSRVIISVDKSKNQFSLKLISVNAADTAIYYCARDREGGTTEAFDIWGQGTMVTVSS
VL: EIVMTQSPATLSVSPGERATLSCRASQSVSSNLAWYQQKPGQAPRLLIYGASTRATGIPVRFSGSGSGTQFTLTISSLQSEDFAVYYCQQYDNWRTFGQGTRLEIKR
Molecule B19 came in with a Kd of 0.347 nM.

B20: ATX-P-565 (antibody, V domains shown)
VH: QVQLVESGGGVVQPGRSLRLSCAASGFTFNTYGIHWVRQAPGKGLEWVAVIWHDGSSKNYVDSVTGRFTISRDNSKNTVYLQMNSLRAEDTAVYYCARRGNWNYGFYYYYMDVWGKGTTVTVSS
VL: DIVMTQSPLSLPVTPGEPASISCRSSQRLLHSSGYNYLDWYLQKPGQSPQLLIYLGSSRASGVPDRFSGSGSGTDFTLKISRVEAEDVGVYYCMQGLQTPPTFGQGTKVEIKR
The molecule B20 came in with an equilibrium dissociation constant (Kd) of 6.9 nM.

B21: ATX-P-579 (antibody, V domains shown)
VH: QVQLQESGPGLVKPSGTLSLTCAVSGASISTSNWWTWVRQPPGKGLEWIGEIYHDGSTNYSPSLQSRVTISVDKSKNQFSLTLTSVTAADTAIYYCGDFYIDVWGNGTTVTVSS
VL: DIQMTQSPSSLSASVGDRVTITCRASQGIRKDLGWYQQKPGKAPKRLIYTASTLQSGVPSRFSGSGSGTEFTLTISSLQPEDFATYYCLQYNNYPFTFGPGTKVDIKR
Regarding B21, the Kd worked out at 1.46 nM.

B22: ATX-P-580 (antibody, V domains shown)
VH: QVQLQESGPGLVKPSGTLSLTCAVSGGSISTSDWWTWVRQPPGKGLEWIGEIYHSGSTNYNPSLKSRVTISVDKSKNQFSLKLSSVTAADTAVYYCADWYFDLWGRGTLVTVSS
VL: DIQMTQSPSSLSASVGDRVTITCRASQGIRNDLGWYQQKPGKAPKRLIYAASSLQSGVPSRFSGSGSGTEFTLAISSLQPEDFATYYCLHFNSYPFTFGPGTKVDIKR
The molecule B22 showed a dissociation constant Kd of 31.9 nM.

B23: ATX-P-568 (antibody, V domains shown)
VH: EVQLVESGGGLVQPGGSLRLSCAASGFPFSSYVMSWVRQAPGKGLEWVSVISVSGGSTFYADSVRGRFTISRDNSKNTLYLQVYSLRAEDTAVYYCAKDGLAVAGFDHWGQGTLVTVSS
VL: DIQMTQSPSTLSASVGDRVTITCRASQSISTWLAWYQQKPGKAPKLLIHKASGLESGVPSRFSGSGSGTEFTLTISSLQPDDFATYYCQQYNSFSLIFGGGTRVEIKR
Consider B23, for which binding was characterised by a dissociation constant (Kd) of 1.62 nM.
